Like-named read-outs stand apart in the source and are kept apart here.
Tests used:
HLA-B*3501 [1] = target: HLA-B*3501
HLA-B*3501 [2] = assay: MHC-peptide assembly over 24 h, ELISA with conformational antibody; reading minus pass/fail control

Row | Binder | ELISA (Absorption-Pass/Fail Control) (HLA-A*0201) | ELISA (Absorption-Pass/Fail Control) (HLA-B*0801) | further results
1 | PMCDEFINV (modifications not checked) [… (SEQ ID NO: 24)] | 0.98 absorption |  | 
2 | KLCDLDGVK (modifications not checked) [… (SEQ ID NO: 22)] | 0.2 absorption |  | ELISA (Absorption-Pass/Fail Control) (HLA-A*0301): 1.16 absorption
3 | LGNPMCDEF (modifications not checked) [… (SEQ ID NO: 43)] |  |  | ELISA (Absorption-Pass/Fail Control) (HLA-B*3501 [1]): 0.35 absorption
4 | LVKSDQICI (modifications not checked) [… (SEQ ID NO: 29)] |  |  | ELISA (Absorption-Pass/Fail Control) (HLA-B*0702): -0.06 absorption; ELISA (Absorption-Pass/Fail Control) (HLA-B*3501 [1]): 0.04 absorption
5 | NVPEWSYIV (modifications not checked) [… (SEQ ID NO: 25)] | 1.03 absorption |  | 
6 | AGWLLGNPM (modifications not checked) [… (SEQ ID NO: 42)] |  |  | ELISA (Absorption-Pass/Fail Control) (HLA-B*3501 [1]): -0.06 absorption
7 | WLLGNPMCD (modifications not checked) [… (SEQ ID NO: 38)] |  | 0.03 absorption | 
8 | HPVGEADYFEY (modifications not checked) [… (SEQ ID NO: 8)] |  |  | ELISA (Absorption-Pass/Fail Control) (HLA-B*3501 [2]): 0.55 absorption
9 | GNPMCDEFI (modifications not checked) [… (SEQ ID NO: 39)] |  | 0.04 absorption | 
10 | VAGWLLGNP (modifications not checked) [… (SEQ ID NO: 37)] |  | 0.04 absorption | 
11 | PLILRDCSV (modifications not checked) [… (SEQ ID NO: 36)] |  | 0.65 absorption | 
12 | TIMEKNVTV (modifications not checked) [… (SEQ ID NO: 18)] | 0.99 absorption | 0.8 absorption | ELISA (Absorption-Pass/Fail Control) (HLA-B*0702): 0 absorption
13 | KPLILRDCS (modifications not checked) [… (SEQ ID NO: 35)] |  | 0.1 absorption | 
14 | IMEKNVTVT (modifications not checked) [… (SEQ ID NO: 19)] | 0.02 absorption |  | 
15 | DILEKKHNG (modifications not checked) [… (SEQ ID NO: 34)] |  | 0.53 absorption | 
16 | HANNSTEQV (modifications not checked) [… (SEQ ID NO: 17)] | 0.43 absorption |  | ELISA (Absorption-Pass/Fail Control) (HLA-B*3501 [1]): 0.43 absorption
17 | DTIMEKNVT (modifications not checked) [… (SEQ ID NO: 32)] |  | 0.08 absorption | 

Row | Binder | ELISA (Absorption-Pass/Fail Control) (HLA-A*0201) | ELISA (Absorption-Pass/Fail Control) (HLA-B*0801) | further results
18 | NVTVTHAQD (modifications not checked) [… (SEQ ID NO: 27)] |  | 0.08 absorption | ELISA (Absorption-Pass/Fail Control) (HLA-A*0301): -0.04 absorption
19 | AQDILEKKH (modifications not checked) [… (SEQ ID NO: 21)] | 0.15 absorption |  | 
20 | LFAIVSLVK (modifications not checked) [… (SEQ ID NO: 40)] |  |  | ELISA (Absorption-Pass/Fail Control) (HLA-B*3501 [1]): 0.1 absorption
21 | VTHAQDILE (modifications not checked) [… (SEQ ID NO: 33)] |  | 0.31 absorption | 
22 | ILEKKHNGK (modifications not checked) [… (SEQ ID NO: 28)] |  | 0.95 absorption | ELISA (Absorption-Pass/Fail Control) (HLA-A*0301): -0.01 absorption
23 | LILRDCSVA (modifications not checked) [… (SEQ ID NO: 23)] | 0.57 absorption | 0.07 absorption | 
24 | SLVKSDQIC (modifications not checked) [… (SEQ ID NO: 16)] | 0.09 absorption |  | ELISA (Absorption-Pass/Fail Control) (HLA-B*3501 [1]): -0.03 absorption
25 | VSLVKSDQI (modifications not checked) [… (SEQ ID NO: 31)] |  | 0.36 absorption | 
26 | KSDQICIGY (modifications not checked) [… (SEQ ID NO: 9)] |  |  | ELISA (Absorption-Pass/Fail Control) (HLA-A*0101): 0.47 absorption; ELISA (Absorption-Pass/Fail Control) (HLA-A*0301): 0.05 absorption
27 | FAIVSLVKS (modifications not checked) [… (SEQ ID NO: 13)] | 0.07 absorption |  | 
28 | FINVPEWSY (modifications not checked) [… (SEQ ID NO: 10)] |  |  | ELISA (Absorption-Pass/Fail Control) (HLA-A*0101): 0.16 absorption; ELISA (Absorption-Pass/Fail Control) (HLA-B*3501 [1]): 0.57 absorption
29 | MEKNVTVTH (modifications not checked) [… (SEQ ID NO: 20)] | -0.02 absorption |  | 
30 | VLLFAIVSL (modifications not checked) [… (SEQ ID NO: 11)] | 0.47 absorption |  | 
31 | LLFAIVSLV (modifications not checked) [… (SEQ ID NO: 12)] | 1.06 absorption |  | 
32 | IVSLVKSDQ (modifications not checked) [… (SEQ ID NO: 15)] | 0.04 absorption |  | 
33 | ILRDCSVAG (modifications not checked) [… (SEQ ID NO: 30)] |  |  | ELISA (Absorption-Pass/Fail Control) (HLA-B*0702): 0.03 absorption
34 | AIVSLVKSD (modifications not checked) [… (SEQ ID NO: 14)] | 0.43 absorption |  | 

Reference: patent publication US20070197446A1, “MHC binding peptides and their uses” (ProImmune Limited, priority 2006, published 2007)
